Source: PMC7327492 (2020)

B1: His-tagged 1x(LxxIxE) B56 inhibitor (designed binder)
chain: TGSTGSTGSTGSTGSLPRSSTLPTIHEEEELSLC
B2: His-tagged 4x(LxxIxE) B56 inhibitor (designed binder)
chain: TGSTGSTGSTGSTGSLPRSSTLPTIHEEEELSLCTGSTGSTGSTGSTGSLPRSSTLPTIHEEEELSLCTGSTGSTGSTGSTGSLPRSSTLPTIHEEEELSLCTGSTGSTGSTGSTGSLPRSSTLPTIHEEEELSLC
B3: His-tagged 2x(LxxIxE) B56 inhibitor (designed binder)
chain: TGSTGSTGSTGSTGSLPRSSTLPTIHEEEELSLCTGSTGSTGSTGSTGSLPRSSTLPTIHEEEELSLC

Target: Recombinant B56α (UniProt Q15172 1-486)
Assay: ITC

Recombinant B56α, sequence (Q15172 whole entry): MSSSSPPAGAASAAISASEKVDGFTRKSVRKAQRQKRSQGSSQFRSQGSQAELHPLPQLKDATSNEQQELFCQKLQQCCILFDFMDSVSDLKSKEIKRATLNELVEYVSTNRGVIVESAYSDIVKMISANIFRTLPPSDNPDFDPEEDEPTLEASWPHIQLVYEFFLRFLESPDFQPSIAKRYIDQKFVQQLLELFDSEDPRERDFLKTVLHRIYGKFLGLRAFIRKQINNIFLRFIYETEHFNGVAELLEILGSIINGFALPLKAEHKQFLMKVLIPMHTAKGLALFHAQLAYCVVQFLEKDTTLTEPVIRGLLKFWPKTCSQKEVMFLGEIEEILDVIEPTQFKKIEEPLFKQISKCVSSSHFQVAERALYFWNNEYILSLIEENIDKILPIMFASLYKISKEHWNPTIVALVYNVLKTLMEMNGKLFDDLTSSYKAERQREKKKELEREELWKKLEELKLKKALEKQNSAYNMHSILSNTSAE

| Binder | Kd [nM] |
| --- | --- |
| B1 | 1300 |
| B2 | 100 |
| B3 | 200 |
